B1: Bap_B amyloid peptide II (aa 579 to 584) (peptide)
peptide: GIFSYS
notes: Bap of Staphylococcus aureus, stretch of region B, aa 579 to 584; also called GIFSYS; source: synthetic peptide, bought: CASLO ApS
B2: purified recombinant Bap_B protein (region B of Bap of S. aureus V329, amino acids 361-819, N-terminal hexahistidine tag) (domain or fragment)
chain: QKSLGYTDNYTFASMLFDPGKLDSDDALNSNIIPFDLHSYMSGANSGNRYKIDLKLDPIIAEHVTKISANPSGSNKPVEFVRNKDENGNLTDTWEVNFIRANDGLFGGAEILSQYTAKNGKIELDDTVGNIISNAGNLSNNKLNHQVFVRDSRENKIVRTSESSGYFLTKADDDLVNLENNVSTENNNAFKASSGSATYNENVGEFGGILIDQQIMKNGIFSYSKTKANQWAYNYQIDKDLLPYIEGVELHQYDYKGLNGFDKNYDAKNKVADLTIDEVGNGTITSDNLNKLIEFNNALPETVGVRVVLKLNKSVNNILTKDAKYDSEGNLIRETTKQKEDFTFAGYLTDSKGALINNTLGTSTLALQDYDKDGLLDRYERQLSLSDAENEDTDGDGKNDGDEVVNYKTSPLVGKPQAADITTEDTVVSGSVPLKEGAATQTAKVINAEGTTVGTATVN
notes: Biofilm associated protein Bap of Staphylococcus aureus V329, region B, amino acids 361-819 (1377 bp fragment cloned in pET46-Ek/LIC); The results give domain B as residues 362-819 (chimeras); the methods give 361-819 for the recombinant protein; also called B domain of Bap
B3: Bap_B amyloid peptide I (aa 487 to 496) (peptide)
peptide: TVGNIISNAG
notes: Bap of Staphylococcus aureus, stretch of region B, aa 487 to 496; source: synthetic peptide, bought: CASLO ApS

Columns and labels:
[1] = biological target: the molecule itself; test: gel formation + electron microscopy + thioflavin-T fluorescence; synthetic peptide at 10 μM, pH 4.5, citrate buffer, room temperature (25°C), four weeks
[2] = biological target: the molecule itself; test: thioflavin-T fluorescence; fresh rBap_B at 0.01-0.036 mg/ml, 25 μM ThT, 25°C, pH 4.5, 5 min

Row | Protein | binding result [1] | binding result [2]
1 | B1 | binds | 
2 | B2 |  | binds
3 | B3 | binds | 

From article PMC4915627, “Staphylococcal Bap Proteins Build Amyloid Scaffold Biofilm Matrices in Response to Environmental Signals” (PLoS Pathogens, 2016)
